Columns and labels:
Assay in all cases: IEDB peptide-MHC binding, purified MHC/competitive/fluorescence; filed as Kd, often an IC50 or EC50 that approximates it; ≥ and ≤ were set here for values at or beyond the usual limits of such assays
Details in all cases: source organism: Lyssavirus rabies
HLA-A*01:01 = target: HLA-A*01:01
HLA-A*11:01 = target: HLA-A*11:01
HLA-A*30:01 = target: HLA-A*30:01
HLA-A*30:02 = target: HLA-A*30:02
HLA-B*07:02 = target: HLA-B*07:02
HLA-B*08:01 = target: HLA-B*08:01
HLA-B*40:01 = target: HLA-B*40:01
HLA-B*44:02 = target: HLA-B*44:02
HLA-B*53:01 = target: HLA-B*53:01

Measured: Kd

YLDNVGVHI
≥ 5 µM: all assays above

From the Immune Epitope Database (IEDB)
